Laboratory results: article PMC8316672 (Journal of Molecular Biology, 2021)
Residue numbers refer to the chain shown, from its start.

B1: Fab 15033 (Fab, V domains shown)
VH: EVQLVESGGGLVQPGGSLRLSCAASGFDLGGYSMHWVRQAPGKGLEWVAGIYASGGATAYADSVKGRFTISADTSKNTAYLQMNSLRAEDTAVYYCARSYYYGGFGMDYWGQGTLVTVSS
VL: DIQMTQSPSSLSASVGDRVTITCRASQSVSSAVAWYQQKPGKAPKLLIYSASDLYSGVPSRFSGSRSGTDFTLTISSLQPEDFATYYCQQSYRYPITFGQGTKVEIK
B2: Fab 15033-7 (Fab, V domains shown)
VH: B1 VH
VL: B1 VL with Y92H, R93T

Target: SARS-CoV-2 RBD (residues 328–528), deglycosylated, His tag removed (crystallography) (SARS-CoV-2, UniProt P0DTC2)
Experiment: crystal structure

Row | Binder | binding result
1 | B1 | binds
2 | B2 | binds
